Assay results published in PMC9482448 (Nature, 2021).

Molecular target: human SMCT1 (monocarboxylate transporter of the SGLT family) (Homo sapiens (Human)., UniProt Q8N695)
Test: cryo-EM structure

Chain of human SMCT1 (monocarboxylate transporter of the SGLT family) (Q8N695 whole entry): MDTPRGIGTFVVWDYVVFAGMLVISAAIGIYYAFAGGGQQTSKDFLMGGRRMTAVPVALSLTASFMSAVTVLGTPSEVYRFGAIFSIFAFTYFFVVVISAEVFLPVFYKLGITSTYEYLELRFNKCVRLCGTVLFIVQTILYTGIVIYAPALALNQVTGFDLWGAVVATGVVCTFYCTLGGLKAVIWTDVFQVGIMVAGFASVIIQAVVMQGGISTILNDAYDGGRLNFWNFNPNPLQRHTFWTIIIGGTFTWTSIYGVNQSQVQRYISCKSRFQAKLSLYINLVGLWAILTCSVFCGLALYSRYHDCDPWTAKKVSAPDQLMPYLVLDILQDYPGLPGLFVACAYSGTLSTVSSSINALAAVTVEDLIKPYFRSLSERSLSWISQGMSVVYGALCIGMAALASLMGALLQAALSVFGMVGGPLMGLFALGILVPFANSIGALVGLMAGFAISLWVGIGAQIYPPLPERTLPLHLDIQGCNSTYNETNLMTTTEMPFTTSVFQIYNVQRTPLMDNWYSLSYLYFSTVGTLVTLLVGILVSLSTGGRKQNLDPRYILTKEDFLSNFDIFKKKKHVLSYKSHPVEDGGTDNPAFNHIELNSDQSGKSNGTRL

- binding result: binds
B1: nanobody Nb2 (binds SMCT1) (VHH)
VHH: QVQLQESGGGLVQAGGSLRLSCAASGNISTRAGMGWYRQAPGKEREFVASINWGAITNYADSVKGRFTISRDNAKNTVYLQMNSLKPEDTAVYYCAVEYKYGPQRSDTYYYWGQGTQVTVSS
